# Measurements reported in the DeepSol protein solubility set.
# Assay: soluble on expression in E. coli; label from the status in PepcDB or PDB records
row,Sequence,soluble on expression in E. coli
1,MLTIAHRLQRESISSGRHSSRISAVFSSPIRASSESRSQHAASSSSSIVSRPESVDEDEEEDGVWPSVTSGGVLVGCACSNSSLTRNESIVVSEGSQALYIASAATAMNGDSVRRRGGDAPDDDEAAGAAPVPAEECNLDALFERFFGDGGADAIRFEPMLPRVYELTLPSIDSRLNFINVGRRHAAFLRHVYGGCDRCEHAAVLNEKMKLFTAVITKLLDVNGILERRETTD,not soluble
2,MLTNQELTAKVKEISLTYFKQSFDHEAKWNQRLRTTGGRFFPKDLHLDFNPKMAELKDFEGVILHELTHYHLYRSKRGYKHRDADFKRLLSQVGGLRYAPSVIDKKIKYYYSCQNCGQLYPRQRKIDTKKYRCGKCRGKLILKTSGNLEHHHHHH,soluble
3,MLTRLAVEAAEQARLAAEVEAQRIAAETAEHARVVAEAEAKRVADEQALFAAEAEAHRITAEAAEQARMEAEAQAQRDADEHARVTAEAQALEAGKTLRLPEAGTPQLGAVAGVISVTAGSGLFLDATIQAAIEILAALVGTAVSSTTAVGIGTLLYSPSLGNGELPGRMLDLPARVLMPDLPDALNDVAATGGTVDMPYRIYGDQSKYSVVATQPEGGFSPKVPVRALILDPVANAYTFTTSDTPPITLTFPIAAPENSSTTTVAQPIETPAYTGITLEPIEVKAEPLPATSPLDIRDAIYVYPVNSGLPPVYVVFSSPYEGATTKGEHSGRMYDPDNAGGPTQNLDWTTASVTQNGIDLVKLHTGRFEPSDANAVMIDRLEKILRSELSMTDTDKRFYTHELRELERYRALGVADGVEGEVWNNAHTATLEDYKLKDSSESFYTPEAILEHHHHHH,soluble
4,MLTSFGKTLRKLRIDHSERLLDMADKPGVSVAFLSSVEIGKKSVPVGMEEKIIEFYSLDKAMASLLKKEADACVERTSQSNLLIHLVVKLLACFLEI,not soluble
5,MLTSGETVNVVLDFTKCTSTDDQKKPGMMRGDLRISAFLIRPDNSISFSDEHFTITTMDKEPIYQFLRYSLKPDETASFTMTTLSMPEKAHKGEVIAYNCKFATALEHHHHHH,not soluble
6,MLVRKVCQNFFQNALAPFHKYRQSALMDATVALINGASLTLTSIGRFLPGQAQVKNKIKRVDRLLGNESLHRDIPLIFNNIIAMLTRKLSLCVVAVDWSGYHSHEYHILRASLICDGRSIPLLSQIVPSAEQQSEQIHKTFLNALARAVNPDARVILEHHHHHH,not soluble
7,MLVRLGYVAMTMNLKDSSPSGTVTVKTLAGLNEDETRLNKLRKVTAANLHNTLRILRYNKAYNISVYRFTSKLVPLATHPMVSHWDYVGEFRNEFKSLGDFVKENNFRVSAHPDHYTLLNSPSKEVFEASVRDLDYHVKLFEAMGLEDYKYKLVMHIGGLYKNKQTSVERFKENYAILPDRIRKRLIFENDDKIYTARDVLDICKELKVPMVLDVHHHNCVNNGERLEDMLKEIFDTWKDEYFPPKIHFSTPKSKENFRSHADEIDVNEFYRFLQIAKKLKKDFDVMIEAKNKDNALFKLSRELKTFDDIRWIDEGHFEIR,not soluble
8,MLVVPAIDLFRGKVARMIKGRKENTIFYEKDPVELVEKLIEEGFTLIHVVDLSNAIENSGENLPVLEKLSEFAEHIQIGGGIRSLDYAEKLRKLGYRRQIVSSKVLEDPSFLKSLREIDVEPVFSLDTRGGRVAFKGWLAEEEIDPVSLLKRLKEYGLEEIVHTEIEKDGTLQEHDFSLTKKIAIEAEVKVLAAGGISSENSLKTAQKVHTETNGLLKGVIVGRAFLEGILTVEVMKRYAR,soluble
9,MLWNVDLLKTLNIMYNKILFMNNSFFGRFKKNDNQVIEEQPPVWEDRIFWVETLQKIAFPVLNNLKKESLKKNMSIESFSSESNKFAHLGAFSNVFNGIAPWLELGPDESEEGKIREKYIVLTLKAISNAVNPNSKDYILFTEPKQSLMSMALFAQGLLRSKTQIWNNLPMDVQARVIYELKNTRIIAPFENHWLLFTSMIEATLLEFTGECDRERLTYSIRKFRDEWYLGDAIYADGPEFDVNYYNSIFIHPMLNDILKVMRKYGINEGELLDVQLMRSSRYASQLERIISPEGTYPLLGKSMAYRTGIFHLLAQAALFKILPRNMETSQVRSALTKVLRTQFGGHQNFDNKGWLTIGLNGCQAEIAEKDINTGSLYGCCAIFLPLGLSFNDSFWVGPFEEWTTLKAWNGNPVEPDQSIDFLEHHHHHH,not soluble
10,MLYSSNAILLTVICYELPLSERIRMLLRLEDLFDKIDFFSARDTSFEHHAVLVALFEILDVTSRSDLKSDLLQELDKQRTMLEGLRSNPEVSEKALDHILQDIRAAFRGLLDIPGRIGGHLRDDEWLMSVKQRMSIPGAACEFDLPAYHYWLNLAPEIRREDLKDWITPFTPIRSGINIVLNMLRNSGKNCCYTAVQGLFQQAGSEHQAHLLRLHISSEFPCVPEISANKYALNIRFVPWRSDHKTEVYEEDIPFELTFCSL,not soluble
11,MMAFAPPKNTDGPKMQTKMSTWTPLNHQLLNDRVFEERRALLGKWFDKWTDSQRRRILTGLLERCSLSQQKFCCRKLQEKIPAEALDFTTKLPRVLSLYIFSFLDPRSLCRCAQVCWHWKNLAELDQLWMLKCLRFNWYINFSPTPFEQGIWKKHYIQMVKELHITKPKTPPKDGFVIADVQLVTSNSPEEKQSPLSAFRSSSSLRKKNNSGEKALPPWRSSDKHPTDIIRFNYLDNRDPMETVQQGRRKRNQMTPDFSRQSHDKKNKLQDRTRLRKAQSMMSRRNPFPLCP,not soluble
12,MMCGGRGTRLDAAAEKPLFEVGGRAMVDHVRAALEAAGRIDTTHAAVSPHAPDTAAHLAATPLSLIETPGDGYVADLTAALDAVGTPVLTVAADLPLLAPAVVDTVVAAADGATTSACVPRALKHELGVSTDADADAWVPTGVNVVGGGDTEATHRSFDARLAVNVNHRSDAAVAARLLAATDRRNHPRLEHHHHHH,not soluble
13,MMDLHTHTVYSDGIGLIRDNVAWAEKRGLKIVGISDHIHFFTPSRFSAYINEINVIKEESEIVVLAGIEANILENGPDITDEFRKKLDYAIASVHEWFGRNGTHEYINYVKKAIMDDNVDIIGHFGNSFPWIGYPTREEIDEILDLAEAYGKAFEISARYKVPDLEFIRECVKRGIKLSLATDAHRPEDVGKVSWSLKMLEKAGGTKEDLIFSEYL,soluble
14,MMEEYVVIGKVLDTFGLEGELKVRPYAPPEVFENLEKVYLKRKGGDWVPFEVEWVDFIDDKVIIKFKGYDSIDEVEQFKGAKLFLPKEELPELGEEEYYAYELVGMEVETDKGKKLGKVERVQDMGPYDALVLDKENLLVPFVSDIVLKVDKENKKIIVKEELLPVLEHHHHHH,soluble
15,MMGRGKLILIEGLDRTGKTTQCNILYKKLQPNCKLLKFPERSTRIGGLINEYLTDDSFQLSDQAIHLLFSANRWEIVDKIKKDLLEGKNIVMDRYVYSGVAYSAAKGTNGMDLDWCLQPDVGLLKPDLTLFLSTQDVDNNAEKSGFGDERYETVKFQEKVKQTFMKLLDKEIRKGDESITIVDVTNKGIQEVEALIWQIVEPVLSTHIDHDKFSFF,soluble
16,MMGSAYWEKLVPQINPPKVPSAVEGLGIPASVVENLVLKHLAAYPKCDLVELTQRLCVVSNIVELALAQLRKRSWVEVYQPASDKLSHSYSNVRYSLTEFGLAEADIAYRKDPYIGPVPVSLEDYWTVVEGQDLRKNPIMRADVERALSDVFGSEHLIPVLGPAINSGRAMLLYGHAGTGKSYVAAR,not soluble
17,MMITSVEKDTKNRGMLSVFIDEKYAFSIPEEDYFRLCLYDKKELSSDEIEEIKKGVSQRTAKYKAVKYLSYRYMTEAELSQKLRKDGYDEDVILNVVTELKSMGYINDLIYAQKYVYDRIKLKPKAKKMLKRELNQKGVSDEIADQVLSELDFDEDVVIERLIRKKFGKYDMKDPKIQKRIYSFLLHRGFDFENIKRVLRTITHLD,soluble
18,MMKGSRRTGNNTATTLNTPVVIHATQLPQHVSTDEVLQFLESFIDEKENIIDIDTNLSSSISQLKRIQRDFKGLPPAQDFSAAPIQV,soluble
19,MMKKMMVLYNETSGSSESKEIAERFKKAAEARGEAVILQPSNPDIDPEEMRKNAKENQVGVLVVIGGDGTIHHAVQNFKDTIRDYQIGIIPGGTVNNFARVLSIPLKEEDAFETILAGQTTPVDFGMVNQDVMISTLTIGLLADTAANVTQQEKQKYGPLAFTKQFFRLLMKKKKYKLKIDGDERRWHGKAQLLTMTMTNSAGGFTNFDANATPDDGEVHIIILPKLVFYKFVYYLPKIIRGQLNEIPGVVYFSGSQFKISGEKDKKVQTRTDGDPTDDLPIKVTVEAGGLNVFVPETSTSTKE,not soluble
